Measurements: PMC6408466, “Inner lumen proteins stabilize doublet microtubules in cilia and flagella” (Nature Communications, 2019)

Target: T1, FAP45 (flagellar-associated protein 45) (Chlamydomonas (endogenous in wild type …, UniProt A8I9E8 1-501))
T1 construct: FAP45 of Chlamydomonas, a coiled-coil protein of 501 amino acids, predicted ~59 kDa; endogenous protein in the axoneme; also called FAP45/CCDC19; MIP3c; source: endogenous, isolated wild type Chlamydomonas axonemes
T1 sequence (looked up): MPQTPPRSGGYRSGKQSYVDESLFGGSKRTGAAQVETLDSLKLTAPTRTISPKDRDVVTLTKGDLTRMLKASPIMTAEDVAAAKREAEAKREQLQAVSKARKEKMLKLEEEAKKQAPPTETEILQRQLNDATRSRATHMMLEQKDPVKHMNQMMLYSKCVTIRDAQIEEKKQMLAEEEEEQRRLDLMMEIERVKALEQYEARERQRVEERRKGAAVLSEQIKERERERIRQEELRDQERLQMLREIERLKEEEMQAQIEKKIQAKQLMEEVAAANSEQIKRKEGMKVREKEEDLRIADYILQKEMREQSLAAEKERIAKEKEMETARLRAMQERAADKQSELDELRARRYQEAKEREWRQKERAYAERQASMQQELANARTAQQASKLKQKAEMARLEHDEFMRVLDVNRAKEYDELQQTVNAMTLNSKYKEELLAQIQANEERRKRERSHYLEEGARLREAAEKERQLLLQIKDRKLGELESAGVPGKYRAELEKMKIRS
Assay: cross-linking; EDC-crosslinked wild type axonemes solubilized, crosslinked products immunoprecipitated with anti-FAP45 antibody, LC tandem MS of the precipitates
Conditions: partners not purified

stoichiometry N: 1
B1: FAP52 (flagellar-associated protein 52) (natural protein, UniProt A8ILK1 1-615, looked up)
chain: MAEPLVLNSVIGFGGAIENGLIAHPDGRTIIYPLGSTIVLRDRADPRSQEFLQGHSDKVSCLALSRSGRYLASGQITYMGFTADIIIWDLESKQLIHRMALHKVKVQALDFSCDERFLASLGGQDDNALVLWDVASGNAICGSPCNTNFTNCVKFFNNSPDKLITAGNFNMNVWTYDAGNNKLRPTDATLGTLKRVFKSVVVDANDEYAYCGTTTGDVLQIALERVLFKNTGPAKGNVQMGVTATCEVPTGDILVGGGDGSLQLLRKMPALAGTKVEGAITSIALADMNARGFTFFVGTAMCNIYKPATSRLKEELVQTAHNDKINGMAFPNEYSEVFATCGTGFIRLWHLTTCRELLRIAVPNLECFCIAFTTDGSAILSGWSDGKIRAFGPQSGKIIFTINDAHQKAVTAIASTADSSRILSGGEEGMVRVWRIGRTSQTLEASMKDHKGPVNCIRIKGSGDECVSASSDGSCILWDLHTFKRRTSLFANTFFKSVVYHPDESQLVTAGTDRKVTYWDAYDGNAIRIIDGSDLDEVNALAVDRDGEALVSGGGDKLVKLWGYDEGHCYFVGVAHSGAITAVGVTPDKQRIVSVGTEGGIFIWDYQRPQTLADI
notes: FAP52 of Chlamydomonas, ortholog of human WDR16, ~66 kDa, WD40 repeat protein; endogenous protein in the axoneme; also called FAP52/WDR16; MIP3a; source: endogenous, isolated wild type Chlamydomonas axonemes
